B1: OR4K15 (parent)
chain: GUUAACGGUCAUAGGCCAUGGAAACUAGGAGCACCAUUUCGCUGCCAGUGAAGAAAUGAACAAAGAAAAUCUGGGCCAGGCAGGCAUCAAAAGAAAUAGUCUUGCGCUCAACCAGAAAGUCUGUAAUCAUUUUAAGGGUA

Variants of: B1
Experiment: self-cleavage, relative activity (ratio to wild type); higher = more cleavage; in vitro, sequencing; the parent is a self-cleaving ribozyme

Row | Variant | self-cleavage
1 | A30U C77U | 1.77
2 | A18G U132G | 1.71
3 | A56U A114G | 0.36
4 | G8A A96G | 1.97
5 | A24G U97C | 0.1
6 | A54G A82G | 0.61
7 | A62G G106U | 0.01
8 | A33U A62G | 1.52
9 | G31U A111U | 0.15
10 | U37A | 1.27
11 | A47U U49A | 0.97
12 | A5G A36U | 1.13
13 | A22G A63U | 1.15
14 | U38C C109A | 0.51
15 | U38C U72G | 0.27
16 | U39C U43C | 1.57
17 | U39C C76A | 0.13
18 | A22G A96G | 1.28
19 | A118G A140G | 1.32
20 | A24G A125C | 0.4
21 | C25U U70C | 0.35
22 | A69G A114C | 0.01
23 | G28A A55C | 1.7
24 | A11U U124C | 1.14

Row | Variant | self-cleavage
25 | A92U U132C | 0.8
26 | G80U A86U | 0.23
27 | A55G A98C | 1.25
28 | A13G A51G | 0.85
29 | A22U U43A | 2.1
30 | A30U C113U | 0.04
31 | A13G C105A | 0.15
32 | U97C U130C | 0.85
33 | A117U U130C | 1.05
34 | A47G A98G | 0.3
35 | U97C G136U | 1.55
36 | A64G A90G | 1.13
37 | U9A A134G | 1.66
38 | U108A U120A | 0.02
39 | A62C U132C | 1.25
40 | A4G A134G | 0.91
41 | A68G A82G | 0.62
42 | G15C A91U | 0.88
43 | A55C A78C | 0.25
44 | A5G U139C | 1.1
45 | A54U U100A | 0.59
46 | U39C A52C | 1.78
47 | A62G A78C | 0.37
48 | U12C A13U | 0.95

Row | Variant | self-cleavage
49 | G75C A98G | 0.07
50 | U19C U97C | 1.5
51 | A64G A134U | 1.07
52 | A27U U108C | 0.03
53 | A11U U100A | 0.62
54 | A126G U132C | 1.07
55 | A30G A55G | 1.14
56 | A4G U120A | 1.62
57 | A11G A94U | 1.2
58 | A82C A134G | 0.17
59 | C40U A68G | 1.84
60 | U9C A89U | 1.25
61 | U38A A117U | 0.73
62 | A69U A111G | 0.04
63 | U87C A96U | 1.48
64 | C40U A95G | 1.96
65 | A62C U87A | 1.54
66 | A59U A82G | 0.43
67 | A36G U38C | 1.19
68 | U3C A94G | 2.02
69 | U43C A92G | 1.24
70 | A94U A96G | 1.29
71 | A78G A116G | 0.15
72 | C88A U130C | 1.42

Row | Variant | self-cleavage
73 | U12C U102C | 1.22
74 | U2C A33U | 1.24
75 | C16A U127C | 0.13
76 | C45A U131A | 1.29
77 | G14U A92G | 1.2
78 | C32U U72C | 0.2
79 | A89U A117U | 0.7
80 | U26C A51U | 1.69
81 | G7U A117G | 1.7
82 | C25A A56G | 1.41
83 | U19A A82U | 0.34
84 | U2C G41A | 1.29
85 | G41C A66U | 1.25
86 | A92G A140G | 1.69
87 | U49C U70A | 1.1
88 | A82G G138A | 0.49
89 | G7U G104A | 0.05
90 | A64U A92G | 1.11
91 | A125G U127C | 0.27
92 | U12A | 1.19
93 | A23U G29A | 2.77
94 | A23G A67G | 1.11
95 | A23U A47G | 0.67
96 | A59U U103C | 0.31

Row | Variant | self-cleavage
97 | U9C A62U | 2.18
98 | A27U A36G | 1.64
99 | A36G A86U | 2.91
100 | U26A A91G | 1.38
101 | A68G A114U | 0.04
102 | A91U U120C | 1.64
103 | A56U | 1.54
104 | C76A U120A | 0.19
105 | A13C A95G | 1.32
106 | A55U A92G | 1.36
107 | G106A A110G | 0.01
108 | U3C A67G | 0.97
109 | U127C A135G | 0.83
110 | C71U A126G | 0.32
111 | G15A U102C | 1.98
112 | A11G G93A | 2.04
113 | C34U A125G | 0.63
114 | G73U A92G | 0.16
115 | A30G A86U | 1.37
116 | U49A U102A | 0.95
117 | A23G A51U | 1.22
118 | U120A A140U | 1.67
119 | G75C A129G | 0.07
120 | U12C A114U | 0.14

Row | Variant | self-cleavage
121 | U38C A90G | 1.4
122 | A33G U103A | 0.46
123 | A54G U57A | 1.26
124 | U19A U49C | 1.38
125 | A92G A116C | 0.09
126 | U43G A125G | 1.11
127 | A23G U124A | 0.25
128 | C10U U87C | 1.08
129 | A30U A47U | 0.19
130 | G8U | 1.49
131 | A36U A59G | 1.26
132 | A27G A86G | 1.4
133 | A78G U132C | 0.12
134 | A5U A24G | 1.12
135 | A11G A90U | 1.69
136 | G79A U108A | 0.02
137 | U72A A90G | 0.18
138 | A36G U108A | 0.01
139 | U3C C107G | 0.09
140 | U87C A95G | 1.35
141 | G7A G44U | 1.28
142 | C17U A22G | 1.48
143 | A36U A116U | 0.5
144 | U49C C121G | 2.4

Row | Variant | self-cleavage
145 | A68U U120C | 1.1
146 | A30G A82U | 0.25
147 | G29C A91G | 1.08
148 | C16U C32G | 0.15
149 | U57A A98C | 1.24
150 | U9G A62U | 0.44
151 | U72A U131C | 0.14
152 | A64G C85U | 0.98
153 | C32A A110U | 2.04
154 | A18G C42G | 1.02
155 | A95G C107U | 0.01
156 | A91U G138A | 0.82
157 | A23G A30U | 0.82
158 | A54G A66G | 1.51
159 | A91G U108C | 0.02
160 | U43C A110G | 0.15
161 | A114G A118U | 0.04
162 | A23G A118U | 0.78
163 | A89G A94U | 0.86
164 | A96G U122C | 1.38
165 | U49A A51G | 1.02
166 | A24G A98C | 1.76
167 | C42A | 0.45

Reference: the RNAGym collection of RNA variant scans (doi:10.7554/elife.90254)
